{
  "source": "paper PMC8575140",
  "about": "(bioRxiv, 2021)",
  "binders": {"B1": {"name": "NCI-CoV-1B5 VHH (VHH)", "VHH": "DVQLVESGGGSVQAGGSLRLSCTGSRYTYSTYCMGWFRQAPGKEEEAVAIINSGGGEPYYGDSVKGRFTISQDRAKNTVYLQMDGLQPDDTAIYYCVAADSHNSRCYLGRSYVNYWGQGTQVTVSS"}},
  "biological_target": "SARS-CoV-2 receptor-binding domain (SARS-CoV-2, UniProt P0DTC2)",
  "data": [
    {"binder": "B1", "values": [
      {"measurement": "IC50", "value": 3.2, "unit": "nM"}
    ]}
  ]
}
